{
  "source": "paper PMC10899662",
  "about": "“TopBP1 utilises a bipartite GINS binding mode to support genome replication” (Nature Communications, 2024)",
  "format_in_all_cases": "binding",
  "key": {"[1]": {"system": "GINS", "experiment": "Competition of PolE2-N with TopBP1 for immobilised GINS", "settings": "150 mM NaCl; ten times molar excess of PolE2-N", "description": "(§1) We next explored the relationship between the interactions of TopBP1 and DNA Polε with GINS. These proteins are part of the recently characterised metazoan pre-LC[37]–[40]. […] These pre-LC models are less informative on how DNA Polε affects the TopBP1-GINS interaction. The N-terminal region of PolE2 (PolE2-N; aa 1–75) binds GINS mainly at the Psf1-B domain, with minor interactions with residues in the A-domain that partly overlap with the TopBP1-BRCT4 interaction surface (Fig. 7a–c). To test if the Psf1-B domain is required for TopBP1 interaction, we did pulldowns with GINS lacking the Psf1-B domain (Psf1-ΔB). […] This could be due to a residual affinity of BRCT4 for Psf1-ΔB or due to the GINI-Psf1 interaction. We therefore analysed specifically the interaction of GINS with BRCT4 using the TopBP1-Gcc mutant. […] The moderate effect of the B domain deletion on BRCT4 binding is consistent with the partial overlap of the BRCT4 and PolE2 binding sites in Psf1. […] Together, in pre-LC, TopBP1 likely binds GINS through the GINI region, potentially also involving a residual affinity of BRCT4 for GINS despite the presence of DNA Polε. TopBP1 and GINS are likely further stabilised in pre-LCs via their interactions with DONSON[37],[38],[41]. […]"}, "[2]": {"system": "GINS lacking the Psf1-B domain (Psf1-ΔB)", "experiment": "Pulldown of TopBP1 versions by GINS with Psf1-ΔB compared to GINS-WT", "settings": "GINS-WT vs Psf1-ΔB", "description": "as §1"}, "[3]": {"system": "GINS complex", "experiment": "Size exclusion chromatography co-elution with GINS", "settings": "Superdex200; 20 µM of each component; 10 mM HEPES pH 7.5, 150 mM NaCl, 0.5 mM TCEP", "protocol": "Recombinant TopBP1 and GINS proteins were mixed in an equimolar ratio to give a final concentration of 20 µM of each component and incubated on ice for at least 30 min prior to application to a Superdex200increase 10 300 column (GE Healthcare, Little Chalfont, UK) equilibrated in 10 mM HEPES pH 7.5, 150 mM NaCl, 0.5 mM TCEP."}},
  "data": [
    {"molecule": "TopBP1-BRCT0-5-WT: recombinant TopBP1 amino acids 1–766, strep-tagged (protein, left off: Strep, C-terminal, kept, recombinant TopBP1 amino acids 1–766, strep-tagged) MSRNDKEPFFVKFLKSSDNSKCFFKALESIKEFQSEEYLQIITEEEALKIKENDRSLYICDPFSGVVFDHLKKLGCRIVGPQVVIFCMHHQRCVPRAEHPVYNMVMSDVTISCTSLEKEKREEVHKYVQMMGGRVYRDLNVSVTHLIAGEVGSKKYLVAANLKKPILLPSWIKTLWEKSQEKKITRYTDINMEDFKCPIFLGCIICVTGLCGLDRKEVQQLTVKHGGQYMGQLKMNECTHLIVQEPKGQKYECAKRWNVHCVTTQWFFDSIEKGFCQDESIYKTEPRPEAKTMPNSSTPTSQINTIDSRTLSDVSNISNINASCVSESICNSLNSKLEPTLENLENLDVSAFQAPEDLLDGCRIYLCGFSGRKLDKLRRLINSGGGVRFNQLNEDVTHVIVGDYDDELKQFWNKSAHRPHVVGAKWLLECFSKGYMLSEEPYIHANYQPVEIPVSHKPESKAALLKKKNSSFSKKDFAPSEKHEQADEDLLSQYENGSSTVVEAKTSEARPFNDSTHAEPLNDSTHISLQEENQSSVSHCVPDVSTITEEGLFSQKSFLVLGFSNENESNIANIIKENAGKIMSLLSRTVADYAVVPLLGCEVEATVGEVVTNTWLVTCIDYQTLFDPKSNPLFTPVPVMTGMTPLEDCVISFSQCAGAEKESLTFLANLLGASVQEYFVRKSNAKKGMFASTHLILKERGGSKYEAAKKWNLPAVTIAWLLETARTGKRADESHFLIENSTKEERSLETEITNGINLNSDTAEHP", "values": [
      {"measurement": "competition by PolE2-N in stringent pulldown conditions", "setting": "[1]", "result": "largely resistant to PolE2 competition"},
      {"measurement": "effect of Psf1-B domain deletion on TopBP1 binding, 100 mM NaAc", "setting": "[2]", "result": "the B domain had no influence"},
      {"measurement": "co-elution with GINS from size exclusion column", "setting": "[3]", "result": "co-eluted with the GINS complex"}
    ]},
    {"molecule": "TopBP1-B4mut: Val590, Thr606 and Val610 mutated to glutamate, arginine and glutamate (protein, left off: Strep, C-terminal, kept) MSRNDKEPFFVKFLKSSDNSKCFFKALESIKEFQSEEYLQIITEEEALKIKENDRSLYICDPFSGVVFDHLKKLGCRIVGPQVVIFCMHHQRCVPRAEHPVYNMVMSDVTISCTSLEKEKREEVHKYVQMMGGRVYRDLNVSVTHLIAGEVGSKKYLVAANLKKPILLPSWIKTLWEKSQEKKITRYTDINMEDFKCPIFLGCIICVTGLCGLDRKEVQQLTVKHGGQYMGQLKMNECTHLIVQEPKGQKYECAKRWNVHCVTTQWFFDSIEKGFCQDESIYKTEPRPEAKTMPNSSTPTSQINTIDSRTLSDVSNISNINASCVSESICNSLNSKLEPTLENLENLDVSAFQAPEDLLDGCRIYLCGFSGRKLDKLRRLINSGGGVRFNQLNEDVTHVIVGDYDDELKQFWNKSAHRPHVVGAKWLLECFSKGYMLSEEPYIHANYQPVEIPVSHKPESKAALLKKKNSSFSKKDFAPSEKHEQADEDLLSQYENGSSTVVEAKTSEARPFNDSTHAEPLNDSTHISLQEENQSSVSHCVPDVSTITEEGLFSQKSFLVLGFSNENESNIANIIKENAGKIMSLLSRTEADYAVVPLLGCEVEARVGEEVTNTWLVTCIDYQTLFDPKSNPLFTPVPVMTGMTPLEDCVISFSQCAGAEKESLTFLANLLGASVQEYFVRKSNAKKGMFASTHLILKERGGSKYEAAKKWNLPAVTIAWLLETARTGKRADESHFLIENSTKEERSLETEITNGINLNSDTAEHP", "values": [
      {"measurement": "effect of Psf1-B domain deletion on TopBP1 binding, 100 mM NaAc", "setting": "[2]", "result": "the B domain had no influence"}
    ]}
  ]
}
